Test results taken from patent publication US20220220215A1 (CRESCENDO BIOLOGICS, published 2022).
Blank lines part the entries; values can stand above or below the binder they belong to.

Experiments:
[1] = target: T1, human GITR-Fc (R&D Systems cat no. 689-GR) (human, UniProt Q9Y5U5 26-161); assay: ELISA, plate coated with 1 ug/ml recombinant protein, anti His-HRP detection
T1 construct: Bought protein; also called Glucocorticoid-induced TNFR-related
T1 sequence (looked up): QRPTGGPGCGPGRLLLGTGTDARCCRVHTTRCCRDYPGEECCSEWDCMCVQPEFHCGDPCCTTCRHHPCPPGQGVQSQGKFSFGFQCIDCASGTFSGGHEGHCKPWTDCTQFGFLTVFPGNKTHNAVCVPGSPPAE
Procedure: (§1) Specificity of binding for CD137 over the tumour necrosis factor receptor family members OX40, GITR (Glucocorticoid-induced TNFR-related), CD40 and HVEM was determined using an ELISA assay. Nunc Maxisorp plates were coated with 1 ug/ml human CD137-Fc recombinant protein (Acro Biosystems 41B-H5258), human GITR-Fc (R&D Systems cat no. 689-GR) human OX40-Fc (R&D Systems cat no. 3388-OX), human CD40 (R&D Systems cat no. CDO-H5253), human HVEM (R&D Systems cat no. HVM-H5258) in PBS overnight at 4° C. then washed twice with PBS. Non-specific protein interactions were blocked by incubation with 1% (w/v) skimmed milk powder (Marvel®) in PBS/0.1% Tween-20 for 1 hour at room temperature. Plates were washed twice with PBS then VH or antibody control (1 ug/ml) added for 1 hour at room temperature. Following three washes with PBS/0.1% Tween-20 a 1:1000 dilution of anti His-HRP (VH detection) or anti mouse-HRP (positive control mouse monoclonal antibody detection) was added in 1% Marvel/PBS/0.1% Tween-20. The detection antibodies were allowed to bind for 1 hour at room temperature then the plates were washed twice in PBS/0.1% Tween-20 and once in PBS. The ELISA was developed using TMB substrate and the reaction was stopped by the addition of 50 ul 0.5M H₂SO₄ solution. The absorbance at 450 nm was measured using the BMG Pherastar.

[2] = target: T2, human OX40-Fc (R&D Systems cat no. 3388-OX) (human, UniProt P43489 29-216); assay: as above
T2 construct: Bought protein
T2 sequence (looked up): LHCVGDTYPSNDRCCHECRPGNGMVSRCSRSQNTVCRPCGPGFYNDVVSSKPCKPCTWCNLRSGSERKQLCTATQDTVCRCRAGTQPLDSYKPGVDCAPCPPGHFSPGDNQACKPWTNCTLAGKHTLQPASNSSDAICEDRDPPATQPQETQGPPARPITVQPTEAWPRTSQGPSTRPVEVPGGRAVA
Procedure: as §1

[3] = target: T3, human HVEM (R&D Systems cat no. HVM-H5258) (human, UniProt Q92956 39-202, limits assumed); assay: as above
T3 construct: Bought protein
T3 sequence (looked up): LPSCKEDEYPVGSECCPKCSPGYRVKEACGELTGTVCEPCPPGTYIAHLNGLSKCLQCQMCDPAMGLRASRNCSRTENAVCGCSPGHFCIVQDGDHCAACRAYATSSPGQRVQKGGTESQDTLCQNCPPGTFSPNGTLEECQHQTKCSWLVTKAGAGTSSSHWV
Procedure: as §1

[4] = target: T4, human CD40 (R&D Systems cat no. CDO-H5253) (human, UniProt P25942 21-193, limits assumed); assay: as above
T4 construct: Bought protein
Procedure: as §1

[5] = target: human CD40 (R&D Systems cat no. CDO-H5253) (human, UniProt P25942 21-193, limits assumed); assay: ELISA, plate-coated human CD40; legend: No binding (-)
Procedure: as §1

[6] = target: T5, human GITR-Fc (R&D Systems cat no. 689-GR) (human, UniProt Q9Y5U5 26-161); assay: ELISA, plate-coated human GITR-Fc; legend: No binding (-)
T5 construct: also called Glucocorticoid-induced TNFR-related
T5 sequence (looked up): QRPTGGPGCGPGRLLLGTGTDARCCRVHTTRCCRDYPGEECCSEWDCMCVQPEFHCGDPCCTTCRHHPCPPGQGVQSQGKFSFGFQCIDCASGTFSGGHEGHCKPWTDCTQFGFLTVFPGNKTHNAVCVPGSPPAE
Procedure: as §1

[7] = target: T6, human HVEM (R&D Systems cat no. HVM-H5258) (human, UniProt Q92956 39-202, limits assumed); assay: ELISA, plate-coated human HVEM; legend: No binding (-)
T6 sequence (looked up): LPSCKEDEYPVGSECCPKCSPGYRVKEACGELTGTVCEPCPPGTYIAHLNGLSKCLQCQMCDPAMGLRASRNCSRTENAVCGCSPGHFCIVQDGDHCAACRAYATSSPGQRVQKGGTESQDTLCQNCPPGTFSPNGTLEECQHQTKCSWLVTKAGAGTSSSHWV
Procedure: as §1

[8] = target: T7, human CD137 expressed on CHO cells (human, UniProt Q07011 18-255); assay: FMAT/Mirrorball on CHO huCD137 cells
T7 construct: also called CHO huCD137; CHO human CD137 cells
Outline: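 His-tagged VH molecules bound to CHO cells expressing human PD-1 or human CD137, with CHO parent cells as control, in PBS pH 7.4, 0.1% BSA, 0.05% sodium azide. Read by FMAT on Mirrorball (ex 488/640 nm); binding taken as FL2 median fluorescence intensity of FL5-gated events.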

[9] = target: T8, Rhesus CD137-Fc tagged protein (rhesus, UniProt H9Z8K9 24-186); assay: BLI (Octet RED384), CD137-Fc on Protein G sensor, 1:1 model
T8 construct: extracellular domain; The Octet paragraph gives no catalogue number; also called rhCD137-Fc
Procedure: (§2) Binding kinetics of purified monovalent VH molecules were measured on a ForteBio Octet RED 384 instrument. Human and Rhesus CD137-Fc tagged protein was diluted to 5 μg/ml in kinetics buffer (0.05% Tween, 1×PBS) and coupled to Protein G biosensors (ForteBio cat no. 18-5082) via the Fc tag. VH were serially diluted (typically 1:2 dilution series starting with 200 nM, VH at the highest concentration) and binding to the CD137-Fc-coupled Protein G biosensors measured. Binding kinetics were determined from the (blank subtracted) sensor gram trace using 1:1 binding models and ForteBio Octet Data Analysis 9.0 software. Example kinetic and binding affinity data obtained is shown Table 18 (monovalent VH).

[10] = target: T9, human OX40-Fc (R&D Systems cat no. 3388-OX) (human, UniProt P43489 29-216, limits assumed); assay: ELISA, plate-coated human OX40-Fc; legend: No binding (-)
T9 sequence (looked up): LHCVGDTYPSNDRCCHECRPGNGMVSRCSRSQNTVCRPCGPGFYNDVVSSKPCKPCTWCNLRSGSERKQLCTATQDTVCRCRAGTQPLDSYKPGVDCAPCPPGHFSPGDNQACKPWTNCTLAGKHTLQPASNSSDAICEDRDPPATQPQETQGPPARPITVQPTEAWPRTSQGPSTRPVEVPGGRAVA
Procedure: as §1

[11] = target: T10, full-length rhesus CD137 (Sino Biologics 90847-K02H), huFc tag (rhesus, UniProt F6W5G6 24-186); assay: BLI (ForteBio Octet RED 384), CD137-Fc on Protein G biosensors, 1:1 model
T10 construct: Bought protein; also called rhCD137-Fc; Rhesus CD137-Fc tagged protein; not shown: human Fc tag (huFc) and any linker to it
Procedure: as §2

binding result [1]: no binding (tested: 1 ug/ml)
binding result [2]: no binding (tested: 1 ug/ml)
binding result [3]: no binding (tested: 1 ug/ml)
binding result [4]: no binding (tested: 1 ug/ml)
B1: 003BB172-E01 (VHH)
VH: EVQLVESGGGLVQPGGSLRLSCAASGFTFSNYGMHWVRQAPGKRLEWVAVISNDGNTKTYADSVKGRFTISRDNSKNMLYLQMTSLRTEDTAVYYCAQDETTTVTASYYFDYWGQGTLVTVSS
notes: Human VH single domain antibody (Humabody), monovalent, His-tagged in the assays; also called 003BB1172-E01; not shown: C-terminal 6xHIS tag

binding result [5]: no binding (tested: 1 ug/ml)
binding result [6]: no binding (tested: 1 ug/ml)
binding result [7]: no binding (tested: 1 ug/ml)
EC50 [8]: 1.29 nM
Kd [9]: 25.9 nM
koff [9]: 0.00159 s⁻¹
kon [9]: 61300 M⁻¹ s⁻¹
binding result [10]: no binding (tested: 1 ug/ml)
B2: 003BB172-E01-14 (VHH)
VHH: EVQLVESGGGVVQPGRSLRLSCAASGFTFSNYGMHWVRQAPGKGLEWVAVISNDGNTKTYADSVKGRFTISRDNSKNTLYLQMNSLRAEDTAVYYCAQDETTTVTASYYFDYWGQGTLVTVSS
notes: Human VH single domain antibody, monovalent

Kd [11]: 11.5 nM
B3: 003BB172-E01-5 (VHH)
VH: EVQLVESGGGLVQPGGSLRLSCAASGFTFSNYGMHWVRQAPGKRLEWVAVISNDGNTKTYADSVKGRFTISRDNSKNTLYLQMNSLRTEDTAVYYCAQDETTTVTASYYFDYWGQGTLVTVSS
notes: Human VH single domain antibody, His-tagged in the assays; not shown: C-terminal 6xHIS tag

Kd [11]: 41.4 nM
B4: 003BB172-E01-8 (VHH)
VHH: EVQLVESGGGVVQPGGSLRLSCAASGFTFSNYGMHWVRQAPGKGLEWVAVISNDGNTKTYADSVKGRFTISRDNSKNTLYLQMNSLRTEDTAVYYCAQDETTTVTASYYFDYWGQGTLVTVSS
notes: as for B3
